Changes are numbered by the printed parent chain.
B1: ISOP120ER5P1E10 (designed binder, not shown: small tags and cut ends)
chain: LPAPKNLVVSRVTEDSARLSWTAPDAAFDSFEIYYMEDFHSGEAIVLTVPGSERSYDLTGLKPGTEYWVTIYGVEGGTGSLPLSAIFTT
notes: FN3 domain (Centyrin); tested as E. coli lysate
B2: ISOP120HR5P1A6 (designed binder, not shown: small tags and cut ends)
chain: LPAPKNLVVSRVTEDSARLSWTAPDGAFDSFEIYYLEGGRGEAIVLTVPGSERSYDLTGLKPGTEYLVTIYGIKCGWASNPLSAIFTT
notes: as for B1
B3: ISOP120GR5P1H11 (designed binder, not shown: small tags and cut ends)
chain: LPAPKNLVVSRVTEDSARLSWTAPDAAFDSFYIAYWEYWGNGEAIGLIVPGSERSYDLTGLKPGTEYHVHIVGVKGGAGSVPLWANFTT
notes: as for B1
B4: ISOP120GR5P1B11 (designed binder, not shown: small tags and cut ends)
chain: LPAPKNLVVSRVTEDSARLSWTAPDAAFDSFNIKYWEANLYGEAIVLTVPGSERSYGLTGLKPGTEYRVHIRGVKGGINSFPLVAVFTT
notes: as for B1
B5: ISOP120FR5P1E9 (designed binder, not shown: small tags and cut ends)
chain: LPAPKNLVVSRVTEDSARLSWTAPDAAFDSFIIYYPEYISNGEAIVLTVPGSERSYDLTGLKPGTEYHVTIGVKGGHSWPLSAIFTT
notes: as for B1
B6: ISOP120HR5P1E7 (designed binder, not shown: small tags and cut ends)
chain: LPAPKNLVVSRVTEDSARLSWTAPDAAFDSFQIYYLEQLGYGEAIVLTVPGSERSYDLTGLKPGTEYLVTIYGVKVCEQSYPLSAIFTT
notes: as for B1
B7: ISOP120FR5P1A6 (designed binder, not shown: small tags and cut ends)
chain: LPAPKNLVVSRVTEDSARLSWTAPDAAFDSFIIRYLEDISYGEAIVLTVPGSERSYDLTGLKPGTEYHVGIEGVKGGNVSFPLSAIFTT
notes: as for B1
B8: ISOP120ER5P1F4 (designed binder, not shown: small tags and cut ends)
chain: B7 chain with I32V, L36I, I39T, S40V, Y41M, G70S, N78P, V79S, F81L
notes: as for B1
B9: ISOP120ER5P1E5 (designed binder, not shown: small tags and cut ends)
chain: B7 chain with I32R, R34S, I39V, S40Y, E72H, N78I, V79D
notes: as for B1
B10: ISOP120HR5P1B5 (designed binder, not shown: small tags and cut ends)
chain: B7 chain with L36I, D38E, I39G, S40Y, N78Y, V79Y, F81Y
notes: as for B1
B11: ISOP120ER5P1H4 (designed binder, not shown: small tags and cut ends)
chain: B7 chain with I32N, R34M, I39V, S40Q, Y41C, E72N, N78L, V79R
notes: as for B1
B12: ISOP120FR5P1H6 (designed binder, not shown: small tags and cut ends)
chain: B7 chain with I32G, R34P, S40E, Y41V, T59A, E72Y, N78E, V79Q
notes: as for B1
B13: ISOP120HR5P1H7 (designed binder, not shown: small tags and cut ends)
chain: LPAPKNLVVSRVTEDSARLSWTAPDAAFDSFDIYYGEPGNLGEAIVLTVPGSERSYDLTGLKPGTEYLVTIYGVKGGDYSSPLSAIFTT
notes: as for B1
B14: ISOP120HR5P1H4 (designed binder, not shown: small tags and cut ends)
chain: B13 chain with Y34L, G36L, G39Y, N40Q, L41E, D78Y, S81L
notes: as for B1
B15: ISOP120FR5P1C2 (designed binder, not shown: small tags and cut ends)
chain: B13 chain with Y34N, G36F, P38Q, G39P, N40K, L41G, D78P, S81P
notes: as for B1
B16: ISOP120FR5P1H5 (designed binder, not shown: small tags and cut ends)
chain: LPAPKNLVVSRVTEDSARLSWTAPDAAFDSLQIYYFEWVVGGEAIVLTVPGSERSYDLTGLKLGTEYLVTIYGVKGGNFSDPLSAIFTT
notes: as for B1
B17: ISOP120ER5P1A11 (designed binder, not shown: small tags and cut ends)
chain: B13 chain with D32E, G36K, P38L, G39R, N40A, L41E, D78S, Y79V, S81I
notes: as for B1
B18: ISOP120HR5P1A3 (designed binder, not shown: small tags and cut ends)
chain: B13 chain with D32E, G36A, P38F, N40Y, L41Y, L68T, D78W, S81T
notes: as for B1
B19: ISOP120ER5P1C6 (designed binder, not shown: small tags and cut ends)
chain: B13 chain with D32S, P38W, G39H, N40A, L68V, D78T, S81L, F87S
notes: as for B1
B20: ISOP120ER5P1B4 (designed binder, not shown: small tags and cut ends)
chain: B13 chain with D32S, Y34L, G39P, N40A, L68W, D78V, Y79F, S81H
notes: as for B1
B21: ISOP120ER5P1H6 (designed binder, not shown: small tags and cut ends)
chain: B13 chain with D32S, P38W, G39H, N40A, L68V, D78T, S81L
notes: as for B1
B22: ISOP120HR5P1G4 (designed binder, not shown: small tags and cut ends)
chain: B13 chain with D32E, G36R, P38Y, G39W, N40Y, L41S, D78W, S81D
notes: as for B1
B23: ISOP120HR5P1F9 (designed binder, not shown: small tags and cut ends)
chain: B13 chain with D32Y, G36R, P38H, G39W, N40T, L41I, D78A, S81N
notes: as for B1
B24: ISOP120ER5P1B6 (designed binder, not shown: small tags and cut ends)
chain: B13 chain with P38H, G39W, N40K, P50Q, D78Q, Y79W, S81F
notes: as for B1
B25: ISOP120HR5P1A7 (designed binder, not shown: small tags and cut ends)
chain: B13 chain with D32E, G36A, G39R, N40Y, L41Y, L68T, D78Y
notes: as for B1
B26: ISOP120HR5P1D7 (designed binder, not shown: small tags and cut ends)
chain: B13 chain with G36L, P38S, G39W, N40T, L41R, D78S, S81R
notes: as for B1
B27: ISOP120HR5P1H8 (designed binder, not shown: small tags and cut ends)
chain: B13 chain with G36Y, P38L, G39R, N40L, L41G, D78Y, S81G
notes: as for B1
B28: ISOP120ER5P1A8 (designed binder, not shown: small tags and cut ends)
chain: B13 chain with G36F, P38H, G39P, N40V, L41G, D78Y, Y79L, S81M
notes: as for B1
B29: ISOP120HR5P1D9 (designed binder, not shown: small tags and cut ends)
chain: B13 chain with G36R, P38L, G39D, N40F, L41Q, T70I, D78S, S81Y, P82T
notes: as for B1
B30: ISOP120HR5P1G6 (designed binder, not shown: small tags and cut ends)
chain: B13 chain with D32E, G36F, P38L, G39R, N40L, L41G, D78L, Y79D, S81Q
notes: as for B1
B31: ISOP120HR5P1B4 (designed binder, not shown: small tags and cut ends)
chain: B13 chain with D32S, P38Y, G39Y, L68V, D78G, S81N
notes: as for B1
B32: ISOP120FR5P1F1 (designed binder, not shown: small tags and cut ends)
chain: B13 chain with D32T, G36F, P38N, G39E, L41G, G77C, Y79W, S81D
notes: as for B1
B33: ISOP120FR5P1A11 (designed binder, not shown: small tags and cut ends)
chain: B13 chain with D32T, G36F, P38N, G39E, L41G, D78H, Y79W, S81R
notes: as for B1
B34: ISOP120ER5P1B12 (designed binder, not shown: small tags and cut ends)
chain: LPAPKNLVVSRVTEDSARLSWTAPDAAFDSFAIYYIEWTAYGEAIVLTVPGSERSYDLTGLKPGTEYVVRISGVKCGIVSFPLSAIFTT
notes: as for B1
B35: ISOP120AR5P1B5 (designed binder, not shown: small tags and cut ends)
chain: LPAPKNLVVSRVTEDYARLSWKYGEHIIWFDSFLIQYQESEKVGEAIVLTVPGSERSYDLTGLKPGTEYTVSIYGVKGQHDHDSNPLSAIFTT
notes: as for B1
B36: ISOP120ER5P1A7 (designed binder, not shown: small tags and cut ends)
chain: LPAPKNLVVSRVTEDSARLSWTAPDAAFDSFNIGYYERIIPGEAIVLTVPGSERSYDLTGLKPGTEYSVLICGVKGGKGSIPLSAIFTT
notes: as for B1

Columns and labels:
Assay in all cases: ELISA, bacterial lysate on plate-bound antigen, luminescence
[1] = molecular target: unrelated Fc-fused recombinant protein (negative control)
human serum albumin = molecular target: T1, human serum albumin (human, UniProt P02768 25-609)
T1 construct: Negative control antigen of the screening ELISA; also called HSA
T1 sequence (P02768 25-609 limits assumed): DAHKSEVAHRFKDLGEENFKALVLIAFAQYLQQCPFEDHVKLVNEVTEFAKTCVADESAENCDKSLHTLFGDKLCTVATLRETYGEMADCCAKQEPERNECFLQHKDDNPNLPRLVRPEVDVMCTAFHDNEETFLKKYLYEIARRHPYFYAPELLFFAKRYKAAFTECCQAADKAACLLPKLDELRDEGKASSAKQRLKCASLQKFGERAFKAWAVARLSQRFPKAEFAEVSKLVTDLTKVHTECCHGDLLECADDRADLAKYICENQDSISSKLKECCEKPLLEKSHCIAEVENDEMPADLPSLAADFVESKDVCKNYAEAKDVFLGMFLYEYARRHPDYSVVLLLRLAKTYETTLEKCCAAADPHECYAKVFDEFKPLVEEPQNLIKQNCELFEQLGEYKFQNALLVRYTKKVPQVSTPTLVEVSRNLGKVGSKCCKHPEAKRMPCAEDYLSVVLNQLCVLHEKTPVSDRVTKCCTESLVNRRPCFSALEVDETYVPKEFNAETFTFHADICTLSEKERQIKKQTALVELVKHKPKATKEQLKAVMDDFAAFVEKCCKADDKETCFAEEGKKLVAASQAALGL
Protocol: (§1) Streptavidin-coated Maxisorp plates (Nunc catalog 436110) were blocked for 1 h in Starting Block T20 (Pierce) and then coated with biotinylated CD137 (using same antigen as in panning) or negative controls (an unrelated Fc-fused recombinant protein and human serum albumin) for 1 h. Plates were rinsed with TBST and diluted lysate was applied to plates for 1 h. Following additional rinses, wells were treated with HRP-conjugated anti-Centyrin antibody (PAB25) for 1 h and then assayed with POD (Roche catalog 11582950001).

[2] = molecular target: T2, recombinant biotinylated human CD137 protein (Fc-fusion protein, R&D Systems 838-4B) (human, UniProt Q07011 24-186, biotinylated (site not stated))
T2 construct: Bought Fc fusion; The ELISA used the same antigen as the panning; also called CD137-Fc; biotinylated CD137; not shown: Fc part of the bought fusion protein
Protocol: as §1

Binder	ELISA Fc Control (RLU) [1] [RLU]	ELISA HSA (RLU) (human serum albumin)	ELISA CD137-Fc (RLU) [2] [RLU]
B1	720	400	810000
B2	640	400	1.29e+06
B3	640	320	1.31e+06
B4	320	160	875000
B5	320	400	1.18e+06
B6	480	480	363000
B7	400	320	1.4e+06
B8	320	400	537000
B9	240	320	413000
B10	320	240	520000
B11	480	560	1.07e+06
B12	320	320	357000
B13	640	480	1.53e+06
B14	480	320	630000
B15	240	400	389000
B16	400	560	460000
B17	320	320	1.14e+06
B18	560	240	1.08e+06

Binder	ELISA Fc Control (RLU) [1] [RLU]	ELISA HSA (RLU) (human serum albumin)	ELISA CD137-Fc (RLU) [2] [RLU]
B19	320	400	495000
B20	400	400	499000
B21	320	480	589000
B22	320	480	347000
B23	400	400	1.18e+06
B24	160	400	1.35e+06
B25	400	480	987000
B26	320	320	1.1e+06
B27	320	400	2.22e+06
B28	400	320	1.9e+06
B29	480	400	405000
B30	400	320	2.04e+06
B31	320	320	1.19e+06
B32	480	640	1.23e+06
B33	480	480	920000
B34	720	800	1.44e+06
B35	400	320	501000
B36	400	400	1.11e+06

— US20220259289A1 (Janssen / Centocor, published 2022)
